How the values were obtained:
[1] = tested on: Human Adenovirus 5 (AD5 strain NYS #98-1836); experiment: microbe, parasite or virus in culture; type: cell-based; settings: Adenovirus 5, MA-104 cells
Protocol: To assess in vitro cytotoxicity, both a cytopathic effects of a virus (CPE) regression assay and a neutral red lysosomal uptake cell viability assay was performed essentially as described in, e.g., Repetto, et al., Neutral Red Uptake Assay for the Estimation of Cell Viability/Cytotoxicity, Nat. Protoc. 3: 1125-1131 (2008), the content of which is hereby incorporated by reference in its entirety. Ninety-six-well plates were seeded with MA-104 cells at 1×10^5 cells/mL and incubated overnight at 37° C. with 5% CO2. […] Each dilution was added to 5 wells of a 96-well plate with 80% to 100% confluent cells, and three wells of each dilution were then infected with one of the two test viruses. Two wells remained uninfected as controls for toxicity. Six wells per plate were set aside as uninfected, untreated cell controls, and six wells per plate were infected with no treatment as virus controls. […] Assay plates were incubated at 37° C. with 5% CO2. […] After CPE reduction assay was completed, a neutral red lysosomal uptake assay was conducted by filling each well with 0.011% (m/v) neutral red, a vital stain. The plates then were incubated for about 2 hours at 37° C. in the dark. The unincorporated neutral red solution was removed from the wells and the incorporated dye was then eluted by adding Sorensen's citrate-buffered ethanol. The plates were then read on a spectrophotometer at 540 nm to quantify the neutral red taken up by the healthy cells. The optical density of test wells was converted to percent of cell control and normalized to the virus controls.
(§1) The concentration of test compound required to inhibit CPE by 50% or reduce red uptake into cells by 50% (EC50) was calculated by regression analysis. The toxicity of the compound without virus present was similarly calculated using the uninfected wells treated with test compounds compared with untreated cell controls. The concentration of compound that would cause 50% cytotoxic effects in the absence of virus (CC50) was estimated by linear regression analysis. The selectivity index (SI) is the CC50 divided by EC50.

Adenovirus serotype Ad5 = experiment: Ad5/NZW rabbit ocular replication model, plaque assay of ocular samples; type: in vivo; settings: for Ad5-positive ocular samples, percent, Day 1 / Ad5-positive ocular samples, percent, Day 3 / Ad5-positive ocular samples, percent, Day 4 / Ad5-positive ocular samples, percent, Day 5 / Ad5-positive ocular samples, percent, Day 7 / Ad5-positive ocular samples, percent, Day 11 / Ad5-positive ocular samples, percent, Day 14 / Ad5-positive ocular samples, percent, Total / Ad5-positive ocular samples/total eyes, Day 1 / Ad5-positive ocular samples/total eyes, Day 3 / Ad5-positive ocular samples/total eyes, Day 4 / Ad5-positive ocular samples/total eyes, Day 5 / Ad5-positive ocular samples/total eyes, Day 7 / Ad5-positive ocular samples/total eyes, Day 11 / Ad5-positive ocular samples/total eyes, Day 14 / Ad5-positive ocular samples/total eyes, Total: 8x daily 9 days
Protocol: See, e.g., Romanowski, et al., The In Vitro and In Vivo Evaluation of ddC as a Topical Antiviral for Ocular Adenovirus Infections, Invest. Ophthalmol. Vis. Sci. 50: 5295-5299 (2009), which is hereby incorporated by reference in its entirety.
To conduct this in vivo assay, 25 NZW rabbit were anesthetized using the general anesthesia ketamine and xylazine and the topical anesthesia proparacaine. Each rabbit was then topically inoculated with 50 μL of Adenovirus serotype Ad5 (3×10^7 pfu/mL) in both eyes after corneal epithelial scarification (12 cross-hatched strokes of a 25 sterile needle). Eyes were closed and gently rubbed for 5 seconds to ensure contact of the virus on all ocular surfaces. […] All topical solutions (37 μL drops) were instilled with an electronic pipette (EDP; Rainin, Oakland, Calif.) set in the multi-dispense mode. Ocular swabbing to recover adenovirus from tear film and corneal and conjunctival surfaces, after topical anesthesia with proparacaine, was performed at least 1 hour after the final dose on days 0, 1, 3, 4, 5, 7, 9, 11, and 14 after inoculation. The ocular samples from each eye was placed individually into tubes containing 1 mL of medium and were frozen at −70° C. pending viral plaque assay.
The ocular samples were assayed for Ad5 titers by performing a plaque reduction assay. Samples were diluted 1:10 and these dilutions were inoculated onto duplicate wells of a 24 well multi-plate containing A549 monolayers. The virus was adsorbed for 3 hours at 37° C. in a 5% CO2-water vapor atmosphere without constant rocking. After adsorption, 1 mL of medium plus 0.5% methylcellulose was added to each well, and the plates were incubated at 37° C. in a 5% CO2-water vapor atmosphere. After 7 days, the cells were stained with 0.5% gentian violet, and the number of plaques counted using a dissecting microscope (25×). The viral titers were then calculated, and will be expressed as plaque-forming units per milliliter (PFU/mL). Data from the study were analyzed using analysis of variance (ANOVA) with Fisher's pair-wise comparisons and X^2 analyses using True Epistat and/or Minitab statistical software. Significance was established at the P≦0.05 confidence level.

[2] = tested on: Human Adenovirus 5 (AD5 strain NYS #98-1836); experiment: Virus yield reduction assay, Adenovirus 5; type: cell-based
Protocol: as §1
(§2) The virus yield reduction assay was used to determine actual virus amounts in the presence and absence of the test compound; this is the confirmatory assay for antiviral activity. […] Replicate wells of each compound concentration or control were pooled and frozen at −80° C. Samples were thawed and diluted by 10-fold serial dilutions. A 100 μL aliquot of each dilution was then plated onto 4 replicate wells of 96-well plates seeded with the applicable cells for each virus strain. Plates were incubated as noted above until viral CPE reached its endpoint, then each well was scored microscopically for the presence of viral CPE. The virus titer was determined based on the endpoint using the Reed-Muench method. […]

[3] = tested on: Human Adenovirus 8 (Ad8 strain 13306); experiment: Virus yield reduction assay, Adenovirus 8; type: cell-based
Protocol: as §1, §2

B1: Ranpirnase (protein, UniProt P22069 1-104, looked up)
Protein P-30: QDWLTFQKKHITNTRDVDCDNIMSTNLFHCKDKNTFIYSRPEPVKAICKGIIASKNVLTTSEFYLSDCNVTSRPCKYKLKKSTNKFCVTCENQAPVHFVGVGSC
notes: amphibian ribonuclease originally isolated from oocytes and/or early embryos of Rana pipiens; pancreatic ribonuclease (RNase A) superfamily, about 12 kD
Neutral Red Assay EC50 [1]: <100 µg/mL
Ad5-positive ocular samples, percent, Day 1 (Adenovirus serotype Ad5; 0.25 μM Ranpirnase (group 1C)): 100%
Ad5-positive ocular samples, percent, Day 3 (Adenovirus serotype Ad5; 0.25 μM Ranpirnase (group 1C)): 100%
Ad5-positive ocular samples, percent, Day 4 (Adenovirus serotype Ad5; 0.25 μM Ranpirnase (group 1C)): 100%
Ad5-positive ocular samples, percent, Day 5 (Adenovirus serotype Ad5; 0.25 μM Ranpirnase (group 1C)): 100%
Ad5-positive ocular samples, percent, Day 7 (Adenovirus serotype Ad5; 0.25 μM Ranpirnase (group 1C)): 88%
Ad5-positive ocular samples, percent, Day 11 (Adenovirus serotype Ad5; 0.25 μM Ranpirnase (group 1C)): 38%
Ad5-positive ocular samples, percent, Day 14 (Adenovirus serotype Ad5; 0.25 μM Ranpirnase (group 1C)): 0%
Ad5-positive ocular samples, percent, Total (Adenovirus serotype Ad5; 0.25 μM Ranpirnase (group 1C)): 76.7%
Ad5-positive ocular samples/total eyes, Day 1 (Adenovirus serotype Ad5; 0.25 μM Ranpirnase (group 1C)): 10/10
Ad5-positive ocular samples/total eyes, Day 3 (Adenovirus serotype Ad5; 0.25 μM Ranpirnase (group 1C)): 10/10
Ad5-positive ocular samples/total eyes, Day 4 (Adenovirus serotype Ad5; 0.25 μM Ranpirnase (group 1C)): 8/8
Ad5-positive ocular samples/total eyes, Day 5 (Adenovirus serotype Ad5; 0.25 μM Ranpirnase (group 1C)): 8/8
Ad5-positive ocular samples/total eyes, Day 7 (Adenovirus serotype Ad5; 0.25 μM Ranpirnase (group 1C)): 7/8
Ad5-positive ocular samples/total eyes, Day 11 (Adenovirus serotype Ad5; 0.25 μM Ranpirnase (group 1C)): 3/8
Ad5-positive ocular samples/total eyes, Day 14 (Adenovirus serotype Ad5; 0.25 μM Ranpirnase (group 1C)): 0/8
Ad5-positive ocular samples/total eyes, Total (Adenovirus serotype Ad5; 0.25 μM Ranpirnase (group 1C)): 46/60
Ad5-positive ocular samples, percent, Day 1 (Adenovirus serotype Ad5; 2.5 μM Ranpirnase (group 1B)): 100%
Ad5-positive ocular samples, percent, Day 3 (Adenovirus serotype Ad5; 2.5 μM Ranpirnase (group 1B)): 100%
Ad5-positive ocular samples, percent, Day 4 (Adenovirus serotype Ad5; 2.5 μM Ranpirnase (group 1B)): 100%
Ad5-positive ocular samples, percent, Day 5 (Adenovirus serotype Ad5; 2.5 μM Ranpirnase (group 1B)): 80%
Ad5-positive ocular samples, percent, Day 7 (Adenovirus serotype Ad5; 2.5 μM Ranpirnase (group 1B)): 70%
Ad5-positive ocular samples, percent, Day 11 (Adenovirus serotype Ad5; 2.5 μM Ranpirnase (group 1B)): 0%
Ad5-positive ocular samples, percent, Day 14 (Adenovirus serotype Ad5; 2.5 μM Ranpirnase (group 1B)): 0%
Ad5-positive ocular samples, percent, Total (Adenovirus serotype Ad5; 2.5 μM Ranpirnase (group 1B)): 64.3%
Ad5-positive ocular samples/total eyes, Day 1 (Adenovirus serotype Ad5; 2.5 μM Ranpirnase (group 1B)): 10/10
Ad5-positive ocular samples/total eyes, Day 3 (Adenovirus serotype Ad5; 2.5 μM Ranpirnase (group 1B)): 10/10
Ad5-positive ocular samples/total eyes, Day 4 (Adenovirus serotype Ad5; 2.5 μM Ranpirnase (group 1B)): 10/10
Ad5-positive ocular samples/total eyes, Day 5 (Adenovirus serotype Ad5; 2.5 μM Ranpirnase (group 1B)): 8/10
Ad5-positive ocular samples/total eyes, Day 7 (Adenovirus serotype Ad5; 2.5 μM Ranpirnase (group 1B)): 7/10
Ad5-positive ocular samples/total eyes, Day 11 (Adenovirus serotype Ad5; 2.5 μM Ranpirnase (group 1B)): 0/10
Ad5-positive ocular samples/total eyes, Day 14 (Adenovirus serotype Ad5; 2.5 μM Ranpirnase (group 1B)): 0/10
Ad5-positive ocular samples/total eyes, Total (Adenovirus serotype Ad5; 2.5 μM Ranpirnase (group 1B)): 45/70
Ad5-positive ocular samples, percent, Day 1 (Adenovirus serotype Ad5; 25 μM Ranpirnase (group 1A)): 100%
Ad5-positive ocular samples, percent, Day 3 (Adenovirus serotype Ad5; 25 μM Ranpirnase (group 1A)): 100%
Ad5-positive ocular samples, percent, Day 4 (Adenovirus serotype Ad5; 25 μM Ranpirnase (group 1A)): 100%
Ad5-positive ocular samples, percent, Day 5 (Adenovirus serotype Ad5; 25 μM Ranpirnase (group 1A)): 90%
Ad5-positive ocular samples, percent, Day 7 (Adenovirus serotype Ad5; 25 μM Ranpirnase (group 1A)): 30%
Ad5-positive ocular samples, percent, Day 11 (Adenovirus serotype Ad5; 25 μM Ranpirnase (group 1A)): 0%
Ad5-positive ocular samples, percent, Day 14 (Adenovirus serotype Ad5; 25 μM Ranpirnase (group 1A)): 0%
Ad5-positive ocular samples, percent, Total (Adenovirus serotype Ad5; 25 μM Ranpirnase (group 1A)): 60%
Ad5-positive ocular samples/total eyes, Day 1 (Adenovirus serotype Ad5; 25 μM Ranpirnase (group 1A)): 10/10
Ad5-positive ocular samples/total eyes, Day 3 (Adenovirus serotype Ad5; 25 μM Ranpirnase (group 1A)): 10/10
Ad5-positive ocular samples/total eyes, Day 4 (Adenovirus serotype Ad5; 25 μM Ranpirnase (group 1A)): 10/10
Ad5-positive ocular samples/total eyes, Day 5 (Adenovirus serotype Ad5; 25 μM Ranpirnase (group 1A)): 9/10
Ad5-positive ocular samples/total eyes, Day 7 (Adenovirus serotype Ad5; 25 μM Ranpirnase (group 1A)): 3/10
Ad5-positive ocular samples/total eyes, Day 11 (Adenovirus serotype Ad5; 25 μM Ranpirnase (group 1A)): 0/10
Ad5-positive ocular samples/total eyes, Day 14 (Adenovirus serotype Ad5; 25 μM Ranpirnase (group 1A)): 0/10
Ad5-positive ocular samples/total eyes, Total (Adenovirus serotype Ad5; 25 μM Ranpirnase (group 1A)): 42/70
Antiviral efficacy compared to the Saline (negative) control (Adenovirus serotype Ad5; 25, 2.5 and 0.25 μM Ranpirnase, Ad5/NZW rabbit ocular model): dose dependent antiviral efficacy
Yield Reduction Assay EC50 [2]: 21.54 µg/mL
Yield Reduction Assay EC50 [3]: 25.1 µg/mL

Reference: US9682130B2 (priority 2015, dated 2017)
